# Measured values published in patent US20190077863A1 (AERPIO PHARMACEUTICALS, published 2019).
# Numbering of substitutions follows the chain as printed. Numbers in names are those of the source.
# T1: Cynomolgus VE-PTP (Cyno PTP-β) containing first eight FN3 repeats with C-terminal His10 tag (Cyno Beta ½ … (cynomolgus, UniProt P23467 25-817 (human entry)))
# T1 construct: Produced in HEK293 cells; it was not cut off; also called Cyno VE-PTP
# T1 chain: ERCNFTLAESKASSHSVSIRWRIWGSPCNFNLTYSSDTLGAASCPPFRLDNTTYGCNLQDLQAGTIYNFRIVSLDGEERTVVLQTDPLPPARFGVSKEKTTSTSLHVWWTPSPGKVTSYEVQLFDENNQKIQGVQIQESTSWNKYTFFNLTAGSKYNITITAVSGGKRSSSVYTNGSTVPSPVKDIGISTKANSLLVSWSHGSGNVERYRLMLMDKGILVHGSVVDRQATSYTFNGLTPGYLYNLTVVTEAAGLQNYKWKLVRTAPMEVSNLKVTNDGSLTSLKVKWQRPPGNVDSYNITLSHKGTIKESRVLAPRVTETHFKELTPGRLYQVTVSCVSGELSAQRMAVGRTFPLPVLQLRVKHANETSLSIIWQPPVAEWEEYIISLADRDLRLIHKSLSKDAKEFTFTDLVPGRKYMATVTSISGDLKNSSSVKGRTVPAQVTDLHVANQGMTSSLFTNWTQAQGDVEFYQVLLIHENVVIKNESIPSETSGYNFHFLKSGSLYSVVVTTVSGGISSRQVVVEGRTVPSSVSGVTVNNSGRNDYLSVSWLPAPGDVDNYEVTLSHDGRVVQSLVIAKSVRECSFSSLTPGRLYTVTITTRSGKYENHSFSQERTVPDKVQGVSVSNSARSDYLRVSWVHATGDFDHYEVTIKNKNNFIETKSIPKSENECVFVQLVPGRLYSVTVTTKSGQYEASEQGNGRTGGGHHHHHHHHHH
# T2: Human VE-PTP (HPTP-β) containing first eight FN3 repeats with C-terminal His6 tag (Human ½ VE-PTP ECD) (human, UniProt P23467 23-820)
# T2 construct: Produced in HEK293 cells and purified by the His tag; it was not cut off; also called Human Beta ½ ECD
# T2 sequence: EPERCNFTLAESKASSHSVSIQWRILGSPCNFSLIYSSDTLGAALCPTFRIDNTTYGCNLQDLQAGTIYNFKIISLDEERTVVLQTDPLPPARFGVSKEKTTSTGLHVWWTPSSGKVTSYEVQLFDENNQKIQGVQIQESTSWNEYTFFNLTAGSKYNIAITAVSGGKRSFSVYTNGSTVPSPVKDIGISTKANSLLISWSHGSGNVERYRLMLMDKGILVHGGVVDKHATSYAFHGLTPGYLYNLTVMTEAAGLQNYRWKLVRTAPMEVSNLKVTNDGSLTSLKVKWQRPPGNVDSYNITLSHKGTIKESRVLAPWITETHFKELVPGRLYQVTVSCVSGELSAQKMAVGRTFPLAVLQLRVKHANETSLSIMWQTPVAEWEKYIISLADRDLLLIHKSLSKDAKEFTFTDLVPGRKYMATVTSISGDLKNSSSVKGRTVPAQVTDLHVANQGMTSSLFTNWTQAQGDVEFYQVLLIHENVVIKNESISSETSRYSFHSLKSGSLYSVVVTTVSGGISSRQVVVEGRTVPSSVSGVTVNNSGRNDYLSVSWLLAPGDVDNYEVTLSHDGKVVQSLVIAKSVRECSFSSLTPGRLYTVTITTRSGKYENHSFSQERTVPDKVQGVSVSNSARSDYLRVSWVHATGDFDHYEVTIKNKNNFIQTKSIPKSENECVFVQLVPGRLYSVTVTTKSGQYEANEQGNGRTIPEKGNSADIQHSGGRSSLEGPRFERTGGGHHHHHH
# B1: humanized R15E6 variant HC2LC1 (antibody, human IgG4 S228P, kappa, V domains shown)
# VH: EVQLVESGGGLVQPGGSLRLSCAASGFTFNANAMNWVRQAPGKGLEWVGRIRTKSNNYATYYAGSVKDRFTISRDDSKNSLYLQMNSLKTEDTAVYYCVRDYYGSSAWITYWGQGTLVTVSS
# VL: DVVMTQSPSFLSASVGDRVTITCKASQHVGTAVAWYQQRPGKAPKLLIYWASTRHTGVPSRFSGSGSGTEFTLTISSLQPEDFATYFCQQYSSYPFTFGGGTKLEIKR
# notes: Human IgG4 (S228P) / kappa, expressed in CHO cells; Signal peptides left out by range; also called VH2-VL1
# B2: humanized R15E6 variant HC2LC2 (antibody, human IgG4 S228P, kappa, V domains shown)
# VH: B1 VH
# VL: DIVMTQSPDSLAVSLGERATINCKASQHVGTAVAWYQQKPGQPPKLLIYWASTRHTGVPDRFSGSGSGTDFTLTISSLQAEDVAVYYCQQYSSYPFTFGQGTKLEIKR
# notes: Human IgG4 (S228P) / kappa, expressed in CHO cells; Signal peptides left out by range; also called VH2-VL2
# B3: humanized R15E6 variant HC2LC3 (antibody, human IgG4 S228P, kappa, V domains shown)
# VH: B1 VH
# VL: B1 VL with V2I, V3Q, S9F, F10S, R39K, E70D
# notes: Human IgG4 (S228P) / kappa, expressed in CHO cells; Signal peptides left out by range; also called VH2-VL3
# B4: humanized R15E6 variant HC3LC4 (antibody, human IgG4 S228P, kappa, V domains shown)
# VH: B1 VH with G16R, A23T, S80I, L81A
# VL: B2 VL with G41E, Q100G, L104V
# notes: Human IgG4 (S228P) / kappa, expressed in CHO cells; Signal peptides left out by range; also called VH3-VL4
# B5: humanized R15E6 variant HC1LC2 (antibody, human IgG4 S228P, kappa, V domains shown)
# VH: B1 VH with R19K, P41S, S80T, L81A, V95A
# VL: B2 VL
# notes: Human IgG4 (S228P) / kappa, expressed in CHO cells; Signal peptides left out by range; also called VH1-VL2
# B6: humanized R15E6 variant HC1LC4 (antibody, human IgG4 S228P, kappa, V domains shown)
# VH: B1 VH with R19K, P41S, S80T, L81A, V95A
# VL: B2 VL with G41E, Q100G, L104V
# notes: Human IgG4 (S228P) / kappa, expressed in CHO cells; Signal peptides left out by range; also called VH1-VL4
# B7: humanized R15E6 variant HC2LC4 (antibody, human IgG4 S228P, kappa, V domains shown)
# VH: B1 VH
# VL: B2 VL with G41E, Q100G, L104V
# notes: Human IgG4 (S228P) / kappa, expressed in CHO cells; Signal peptides left out by range; also called VH2-VL4
# B8: mouse/human chimeric antibody HC0LC0 (antibody, human IgG4 S228P, kappa, V domains shown)
# VH: EVQLVETGGGLVQPKGSMKLSCAASGFTFNANAMNWIRQAPGKGLEWVARIRTKSNNYATYYAGSVKDRFTISRDDAQNMLYLQMNDLKTEDTAMYYCVRDYYGSSAWITYWGQGTLVTVSA
# VL: DIVMTQSHKFMSTSVGDRVSITCKASQHVGTAVAWYQQKPDQSPKQLIYWASTRHTGVPDRFTGSGSGTDFTLTISNVQSEDLADYFCQQYSSYPFTFGSGTKLEIKR
# notes: Murine variable domains of R15E6 on human IgG4 (S228P) and kappa constant domains, expressed in CHO cells; also called VH0-VL0
# Experiments:
# [1] = biological target: T1, Cynomolgus VE-PTP (Cyno PTP-β) …; test: ELISA, coated antigen
# Protocol: HPTP-β, cyno PTP-β, and HPTP-η proteins were coated onto ELISA plates in coating buffer (pH 9.4). Each protein was prepared as a 1 μg/mL protein stock in 50 mM carbonate-bicarbonate. The coated proteins were aliquoted at a volume of 100 μL/well into sterile, clear, polystyrene, flat bottom 96-well plates. The plates were incubated overnight at 4° C. After overnight incubation, the plates were washed 3× with 200 μL/well of 1×PBS-T (PBS with 0.05% Tween 20). The immunizing protein was human VE-PTP (HPTP-β). The plates were then blocked with 200 μL/well of 5% blotting grade blocker non-fat dry milk in PBS-T and incubated for 1 hr at room temperature.
# Primary antibody samples were prepared for the humanized variants and the negative control, anti-hCD20-hIgG4S228P, using 1 μg/well in 5% blotting grade blocker non-fat dry milk in PBS. Samples were tested in triplicates. The Fab antibody fragments were treated as the IgG antibodies. The plates were then washed 3× with PBS-T and 100 μL of primary antibody preparation was added in each well. The plates were then incubated for 1 hr at room temperature.
# Then, […] Ultra TMB-ELISA was added in each well, and the plate was allowed to develop for 5 min at room temperature. After 5 min, 50 μL of 2 M sulfuric acid was added to each well to stop the reaction. The plates were then analyzed on a plate reader at an absorbance wavelength of 450 nm.
# [2] = biological target: T2, Human VE-PTP (HPTP-β) containing first …; test: SPR (Biacore 3000), antibody captured on anti-human IgG, antigen as analyte 100 nM (single concentration)
# Protocol: (§1) Samples of each variant were further assessed by Biacore analysis to determine the binding affinity. Antibody binding experiments were performed on Biacore 3000™ at 25° C. Assay buffer: 10 mM HEPES buffer (pH 7.4), 150 mM NaCl, 3 mM EDTA, 0.05% P20 (polyoxyethylenesorbitan). […] Conjugation buffer: 10 mM sodium acetate buffer (pH 5). The flow rate used for capturing the ligand was 5 μL/min. The flow rate for the kinetic analysis was 50 μL/min. Flow cell 1 and […] of the CM5 chip were coated with maximum amounts of goat anti-human IgG. Approximately 150 RU of the test antibody was captured on flow cell 2, 3, and 4 as indicated. The antigen was flowed over the chip. Binding of the antigen to the antibodies was monitored in real time. The KD was determined from the observed kₒₙ and koff values.
# A scouting analysis was performed using single analyte concentrations as indicated. At these concentrations, binding can be observed even if the ligand binding is weak. Flow cell 1 response was used for reference subtraction.
# [3] = biological target: T2, Human VE-PTP (HPTP-β) containing first …; test: SPR (Biacore 3000), antibody captured on anti-human IgG, antigen as analyte 25-0 nM
# Protocol: as §1
Binder,binding result [1],Ka [2] [M⁻¹],Kd [2] [nM],koff [2] [s⁻¹],kon [2] [M⁻¹ s⁻¹],Ka [3] [M⁻¹],Kd [3] [nM],koff [3] [s⁻¹],kon [3] [M⁻¹ s⁻¹]
B1,no binding (tested: <=0.2; 1 µg/well),7.24e+07,13.8,0.000688,49800,,,,
B2,no binding (tested: <=0.2; 1 µg/well),2.85e+08,3.51,0.000524,149000,1.98e+07,50.6,0.00215,42500
B3,no binding (tested: <=0.2; 1 µg/well),3.36e+08,2.98,0.000662,222000,6.75e+08,1.48,0.00123,890000
B4,no binding (tested: <=0.2; 1 µg/well),1.59e+08,6.29,0.000887,139000,1.23e+08,8.14,0.00109,134000
B5,no binding (tested: <=0.2; 1 µg/well),3.27e+08,3.06,0.000769,251000,,,,
B6,no binding (tested: <=0.2; 1 µg/well),2.26e+08,4.42,0.000792,179000,,,,
B7,no binding (tested: <=0.2; 1 µg/well),7.72e+07,13,0.000668,51500,,,,
B8,no binding (tested: <=0.2; 1 µg/well),1.61e+08,6.22,0.000417,67100,,,,
